The values that follow come from PMC4013091, “Stabilization and Augmentation of Circulating AIM in Mice by Synthesized IgM-Fc” (PLoS ONE, 2014).

Test [1] has as its target FL-hFc, human IgM-Fc with a FLAG tag on the N-terminus of the CH2 domain (human). In words: non-reducing SDS-PAGE and western blot; culture supernatant of HEK293T cells transfected with pCAGGS-FL-hFc only, without IgJ. In general terms: In western blotting, separated proteins are transferred to a membrane and probed.
Test [2] shares this target. In words: non-reducing SDS-PAGE and western blot; culture supernatant of HEK293T cells co-transfected with FL-hFc and IgJ-Myc; blotted with anti-FLAG and anti-Myc antibodies.
Test [3] addresses T1, human recombinant AIM (apoptosis inhibitor of macrophage) (human, UniProt O43866 20-347).
T1 construct: also called human rAIM; rAIM; source: purified recombinant
T1 sequence (looked up): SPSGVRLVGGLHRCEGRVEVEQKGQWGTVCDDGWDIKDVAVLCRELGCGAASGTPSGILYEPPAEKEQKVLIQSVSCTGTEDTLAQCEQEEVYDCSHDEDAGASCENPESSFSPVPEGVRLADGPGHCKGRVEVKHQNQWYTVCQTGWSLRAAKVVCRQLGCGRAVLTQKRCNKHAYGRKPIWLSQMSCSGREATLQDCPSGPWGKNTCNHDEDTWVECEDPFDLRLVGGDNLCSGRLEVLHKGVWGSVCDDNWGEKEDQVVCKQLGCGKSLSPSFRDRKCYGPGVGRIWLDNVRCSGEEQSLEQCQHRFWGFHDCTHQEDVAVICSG
In words: SPR; Biacore 3000, 25°C; human rAIM covalently immobilised (2800 RU) on a CM5 chip; IgM-Fc monomer injected in 10 mM HEPES pH 7.4, 150 mM NaCl, 3 mM EDTA, 0.05% Tween-20 at 20 µL/min; 1:1 Langmuir model; apparent affinity. The following applies: both partners purified. In general terms: SPR reads the build-up and loss of mass on a sensor chip optically.

Test [4] concerns the target human IgM-Fc pentamer (FL-hFc) combined with IgJ-Myc (human) (UniProt P01591).
The target is the same in test [5]. In words: sequential immunoaffinity co-purification; supernatant of co-cultured HEK 293T cells (hAIM-HA cells with FL-hFc and IgJ-Myc cells); anti-hAIM monoclonal antibody column, then anti-FLAG column; fractions blotted with anti-HA and anti-FLAG.
Test [6] has the same target. The source holds these as a separate data set.

Values joined by “and” are separate entries in the source; they are usually repeats but may differ in a detail not shown here. Equal values may be shown once.

Sequence of human IgM-Fc pentamer (FL-hFc) combined with IgJ-Myc (human) (P01591 whole entry): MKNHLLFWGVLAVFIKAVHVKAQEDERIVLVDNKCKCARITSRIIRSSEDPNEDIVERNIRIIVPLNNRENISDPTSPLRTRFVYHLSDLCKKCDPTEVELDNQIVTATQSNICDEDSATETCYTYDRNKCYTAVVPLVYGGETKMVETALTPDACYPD

As usually defined, the stoichiometry N is a count of units in the complex or per binding partner. For “FL-hFc, human IgM-Fc with a FLAG tag on the N-terminus of the CH2 domain (domain or fragment)”, the stoichiometry N in test [1] was 5 and 6; in test [2], 5.

B1: monomeric human IgM-Fc (CH2-CH3-CH4) with a C-terminal Myc tag (domain or fragment)
chain: IAELPPKVSVFVPPRDGFFGNPRKSKLICQATGFSPRQIQVSWLREGKQVGSGVTTDQVQAEAKESGPTTYKVTSTLTIKESDWLGQSMFTCRVDHRGLTFQQNASSMCVPDQDTAIRVFAIPPSFASIFLTKSTKLTCLVTDLTTYDSVTISWTRQNGEAVKTHTNISESHPNATFSAVGEASICEDDWNSGERFTCTVTHTDLPSPLKQTISRPKGVALHRPDVYLLPPAREQLNLRESATITCLVTGFSPADVFVQWMQRGQPLSPEKYVTSAPMPEPQAPGRYFAHSILTVSEEEWNTGETYTCVVAHEALPNRVTERTVDKSTGKPTLYNVSLVMSDTAGTCY
modifications: Disulfide-linked dimer of the mu Fc chain (~100-110 kDa), N-glycosylated (HEK293T). C-terminal Myc tag, which blocks pentamer formation, omitted. Limits not printed: CH2 start by domain convention. …
What is called koff is the first-order rate constant of dissociation. A word on the kon: it is a measure of how fast the partners come together. Regarding B1, in test [3], the Kd was determined as 153 nM, the koff was determined as 0.00315 s⁻¹ and the kon worked out at 20500 M⁻¹ s⁻¹.

B2: HA-tagged human AIM (natural protein)
chain: T1 sequence (looked up)
Regarding B2, the half-life of hAIM in the blood of wild-type mice after i.v. injection of 100 µg hFc-AIM complex (less than 2 h for hAIM alone) in test [4] was 12 h. The mass of hAIM in 100 µg of the purified hFc-AIM complex in test [5] was determined as 20 µg.

B3: endogenous mouse AIM in serum (natural protein)
chain: ESPTKVQLVGGAHRCEGRVEVEHNGQWGTVCDDGWDRRDVAVVCRELNCGAVIQTPRGASYQPPASEQRVLIQGVDCNGTEDTLAQCELNYDVFDCSHEEDAGAQCENPDSDLLFIPEDVRLVDGPGHCQGRVEVLHQSQWSTVCKAGWNLQVSKVVCRQLGCGRALLTYGSCNKNTQGKGPIWMGKMSCSGQEANLRSCLLSRLENNCTHGEDTWMECEDPFELKLVGGDTPCSGRLEVLHKGSWGSVCDDNWGEKEDQVVCKQLGCGKSLHPSPKTRKIYGPGAGRIWLDDVNCSGKEQSLEFCRHRLWGYHDCTHKEDVEVICTDFDV
B3: the circulating mouse AIM level in Δsμ mice 24 h after i.v. injection of 1 mg FL-hFc, as percent of that in the wild-type mouse (immunoblot of serum) in test [6] was determined as 35%.
